What was measured:
[1] = system: HLA-A*0201-positive PBMCs and HLA-A*0201/Kb transgenic mice; details: in vitro from PBMCs and in HLA-A*0201/Kb transgenic mice; cited from earlier work
[2] = target: HLA-A*0201 molecule (Homo sapiens, UniProt P04439, D140Y/D185E/D98H/E176V/E277Q/G131W/G231S/I119V/I121R/I166T/I218V/L300P/L318F/N151K/N90K/P208A/P217A/Q86G/Q94H/R138H/R169H/T345S); details: cited from earlier work
[3] = system: HLA-A*02 positive cell types from healthy tissues; experiment: Safety: IFN-γ release upon co-culture with primary and iPSC-derived cell types from healthy tissues; format: cell-based, human; details: E:T ratio 1:1, 20 h, ELISA, normalized
Text: FIG. 13 T cells transfected with RNA coding for TCR R7P1 D5, R10P2G12, R20P1H7, mock or the control TCR 1G4 (SEQ ID NO:X) were co-cultured with different primary human healthy tissue cells (see table 13 for abbreviations), the target negative tumor cell line MCF-7 and the MAGEA4- and NY-ESO1-positive cell lines A-375 and NCI-H1755. TCRs R7P1D5, R10P2G12, R20P1H7 and 1G4 expression in T cells was achieved by electroporation using an RNA vector. […] E:T ratio 1:1, 20,000 cells each, mean of IFN-γ release after 20 h from replicates is shown as measured by ELISA. Error bars indicate standard deviations. Results were normalized by subtraction of IFN-γ release from TCR-transfected T cells only and IFN-γ release due to co-culture of Target cells and T cells not expressing TCR of interest.
(§1) TCRs of interest were expressed in human T cells via RNA electroporation and the T cells were assessed for IFN-γ release after co-culture with different target cells, such as T2 cells loaded with different peptides as well as tumor cell lines and primary cells from healthy tissues. T-cell activation data are shown in absolute IFN-γ levels or a normalized way as indicated below.
(§2) Efficacy of CD8+ T cells expressing TCRs R7P1 D5, R10P2G12 and R20P1H7 was determined by T cell activation studies (IFN-γ release) using different tumor cell lines as target cells. The characterization of the safety profile of TCRs of interest was approached by testing the potential activation of TCR-expressing T cells upon co-culture with isolated primary cell types from healthy tissues and induced pluripotent stem cell (iPSC)-derived cell types from HLA-A*02-positive donors (Table 13). Cell types were selected in a manner to cover most of the critical organs like e.g. brain, heart and liver and different cell types as epithelium, endothelium or smooth muscle. Tumor cell lines were analyzed side-by-side as positive and negative controls.
Normalization Method for IFNγ Release: Meannorm(TCRoi;co)=[mean(TCRoi;co)−mean(TCRoi;effector only)]−[mean(mock;co)−mean(mock;effector only)]
The respective CVnorm was calculated: CVnorm(TCRoi;co)=[CV(TCRoi;co)^2+CV(TCRoi;effector only)^2+CV(mock;co)^2+CV(mock;effector only)^2]^[½] TCRoi=effector cells expressing TCR of interest Mock=effector cells without exogenous TCR expression Co=effector cells co-cultured with target cells Effector only=effector cells not co-cultured Mean(norm)=mean IFNγ release (normalized) CV(norm)=coefficient of variation (normalized) Results: […]

[4] = system: NYESO1 expressing HLA-A*02 positive tumor cell lines; experiment: IFN-γ release of 1G4-expressing CD8+ T cells with NYESO1 expressing tumor cell lines; format: cell-based, human; details: Example 6
Description: as §1, §2

[5] = system: MHC/NYESO1-001 complex; experiment: Activation of 1G4-transformed CD8+ T-cells by NYESO1-001-loaded target cells; format: cell-based, human

Molecule	induction of peptide-specific CTLs [1]	binding affinity and stability towards HLA-A*0201 molecule [2]	T-cell activation (IFN-γ release) by healthy tissue cells [3]	T-cell reactivity (IFN-γ release) [4]	T-cell activation [5]
YLLEHVVRL (listed as Homo sapiens) [p286-1Y2L9L]	showed the capability to induce specific CTLs	potent binding affinity and stability			
KVLEHVVRV (listed as Homo sapiens) [MAG-003]	elicits peptide-specific CTLs	potent binding affinity and stability			
1G4: control TCR known to bind specifically to MHC/NYESO1-001 complex; alpha and beta chains SEQ ID NO:89 and 90 (protein, listed as Homo sapiens) alpha: METLLGLLILWLQLQWVSSKQEVTQIPAALSVPEGENLVLNCSFTDSAIYNLQWFRQDPGKGLTSLLLIQSSQREQTSGRLNASLDKSSGRSTLYIAASQPGDSATYLCAVRPTSGGSYIPTFGRGTSLIVHPYIQNPDPAVYQLRDSKSSDKSVCLFTDFDSQTNVSQSKDSDVYITDKTVLDMRSMDFKSNSAVAWSNKSDFACANAFNNSIIPEDTFFPSPESSCDVKLVEKSFETDTNLNFQNLSVIGFRILLLKVAGFNLLMTLRLWSS beta: MSIGLLCCAALSLLWAGPVNAGVTQTPKFQVLKTGQSMTLQCAQDMNHEYMSWYRQDPGMGLRLIHYSVGAGITDQGEVPNGYNVSRSTTEDFPLRLLSAAPSQTSVYFCASSYVGNTGELFFGEGSRLTVLEDLKNVFPPEVAVFEPSEAEISHTQKATLVCLATGFYPDHVELSWWVNGKEVHSGVSTDPQPLKEQPALNDSRYCLSSRLRVSATFWQNPRNHFRCQVQFYGLSENDEWTQDRAKPVTQIVSAEAWGRADCGFTSESYQQGVLSATILYEILLGKATLYAVLVSALVLMAMVKRKDSRG			not towards the indicated panel of healthy tissue cells	reactive	readily activated

From patent US10889629B2, “Transfected T-cells and T-cell receptors for use in immunotherapy against cancers” (IMMATICS BIOTECHNOLOGIES GMBH, priority 2016, dated 2021)
